Test results reported in the nanobody polyreactivity screen of Harvey et al. (2022).

Test: yeast display, Sf9 membrane polyspecificity reagent, FACS + sequencing; frameworks hold sequencing errors
How it was run: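 Nanobodies from a synthetic yeast display library (Saccharomyces cerevisiae BJ5465), induced 36–48 hours with galactose, were stained 1 hour at 4 °C with 10% biotinylated, detergent-solubilized Sf9 membrane reagent, enriched on streptavidin microbeads, then FACS-sorted. Anti-HA (expression) and streptavidin (reagent binding) fluorescence set low and high (top ~1%) gates. Polyreactivity labels come from the gate of origin. Genes were colony-PCR amplified, MiSeq 2 × 250 sequenced and filtered by CDR length.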
In the case of “QVQHVESGGGLVQAGGSLRLICAASGSTFRGYAMGWYRPAPGKERELVAAITSSGGSTYYADSVKGRFTISRDNAKNTVYLQMNSLKPEDTAVYSCAAASRRFGLYGYWGQGTQVTVSS”, the “polyreactivity (PSR sort gate)” value is reported as “high polyreactivity”. For “QVQHVESGGGLVQAGGSLRLRCAASGRTFGQNTMGWSRQAPGKERELVAAISWSGDSTYYADSVKGRFTISRDNAKNTVYLQMNSLKTEDSAVYYCAADPYNYYVSGYDYWGQGTQVTVSS”, the “polyreactivity (PSR sort gate)” value was “low polyreactivity”. With “QVQHVESGGGLVQAGGSLRLSCAASGFIFDRYAMGWYRQAPGKERELVAAISSGGSTYYADSVKGRFTISRDNAKNTVYLQMNSLKPEDTAVYYCAAESWLNFIYEYDYWGQGTQVTVSS” the “polyreactivity (PSR sort gate)” value was “low polyreactivity”. With “QVQHVESGGGLVQAGGSLRLSCAASGFIFRRNVMGWYRQAPGKERELVAAISNSGGSTYYADSVKGRFTISRDNAKNTVYLQMNSLKPEDTAVYYCAAVYSYWGRYFEYGYWGQGTKVTVSS” the “polyreactivity (PSR sort gate)” value was “high polyreactivity”. With “QVQHVESGGGLVQAGGSLRLSCAASGFIFSKYAMGWYRPAPGKERELVAAITRSGGRTYYADSVKGRFTISRDNAKNTVYLQMNSLKPEDTAVYYCAASWLYFGRDYWGQGTQVTVSS” the “polyreactivity (PSR sort gate)” value was “high polyreactivity”. With “QVQHVESGGGLVQAGGSLRLSCAASGFIFTAYAMGWYRQAPGKERELVAGIRSGSSTYYADSVKGRFTISRDNAMNTVYLQMNSLKPEDTAVYYCNAEKYNFIYAYEYWGQGTQVTVSS” the “polyreactivity (PSR sort gate)” value was “low polyreactivity”. With “QVQHVESGGGLVQAGGSLRLSCAASGFIFWKNAMGWYSQAPGKERELVAAITVTGASTYYADSVKGRFTISRDNAKNTVYLQMNSLKPEDTAVYYCAAKTLSVGYVDPDYGRDYWGQGTQVTVSS” the “polyreactivity (PSR sort gate)” value was “low polyreactivity”. With “QVQHVESGGGLVQAGGSLRLSCAASGFIYSTNAMGWYRQAPGKERELVATIRSGGSTNYADSVKGRFTISRDNAKNTVYLQMNCLQPEDTAVYYCNVDDTSWTTSGGRFGQVESDYWGQGTQVTVSS” the “polyreactivity (PSR sort gate)” value was “low polyreactivity”. In the case of “QVQHVESGGGLVQAGGSLRLSCAASGFTFLKNAMGWYRQAPGKERELVAAITSSGGRTYYADSVKGRFTISRDNAKNTVYCQMISLKPEDTAVYYCNKGPLPGYDYWGQGTQVTVSS”, the “polyreactivity (PSR sort gate)” value is reported as “high polyreactivity”. With “QVQHVESGGGLVQAGGSLRLSCAASGFTFYTYAMGWYRPAPGKERELVAAITSSGGSTYYADSVKGRFTISRDNAKNTVYLQMNSLKPEDTAVYYCNDRVRTQQRWVDYWGQGTQVTVSS” the “polyreactivity (PSR sort gate)” value was “high polyreactivity”. For “QVQHVESGGGLVQAGGSLRLSCAASGFTYFSNAMGWYREAPGKERELVASITNDGSTYADSVKGRFTISRDNAKNTVYLQMNRLKAEDTAVYYCAARFPKWRYSPRTGERFDYWGQGTQVTVSS”, the “polyreactivity (PSR sort gate)” value was “low polyreactivity”. In the case of “QVQHVESGGGLVQAGGSLRLSCAASGGIFRFYAMGWYRQAPGKERELVARITSSGGGTYYADSVKGRFTISRDNAKNTVYLQMNSLKPEDTAVSYCAALVYSSYPAGWYDYWGQGTQVTVSS”, the “polyreactivity (PSR sort gate)” value is reported as “high polyreactivity”. In the case of “QVQHVESGGGLVQAGGSLRLSCAASGGTFVWYAMGWYRQAPGKERELVAAISSSGGRTYYADSVKGRFTISRDNAKNTVYLQMNSLKPEDTAVYYCNAAPYYVLYLLWSSNTYDYWGQGTQVTVSS”, the “polyreactivity (PSR sort gate)” value is reported as “high polyreactivity”. For “QVQHVESGGGLVQAGGSLRLSCAASGIIFGTNALGWYRQAPGKERELVAYITSGGSTYADSVKGRFTISRDNAKNTVYLQMNSLKPEDTAVYYCAAYVFWAFYEYDYWGQGTQVTVSS”, the “polyreactivity (PSR sort gate)” value was “low polyreactivity”. In the case of “QVQHVESGGGLVQAGGSLRLSCAASGIIFTTYAMGWYRQAPGKERELVAAISRSGSTYYADSVKGRFTISRDNAKNTVYLQMNSLKPEDTAVYYCASGRWRWRGYDYYWGQGSQVTVSS”, the “polyreactivity (PSR sort gate)” value is reported as “high polyreactivity”. For “QVQHVESGGGLVQAGGSLRLSCAASGITFFYYAMGWYRQAPGKERELVAAISTSGGRTYYADSVKGRFTISRDNAKNTVYLQMNSLKPEDTAVYYCADQSGWLRYYYWGQGTQVTVSS”, the “polyreactivity (PSR sort gate)” value was “high polyreactivity”. In the case of “QVQHVESGGGLVQAGGSLRLSCAASGLIFSRYVMGWYRQAPGKERELVAAISRSGGSTYYADSVKGRFTISRDNAKNTVYLQMNSLKPEDTAVYYCNAGRRTGRYGYWGQGTQVTVSS”, the “polyreactivity (PSR sort gate)” value is reported as “high polyreactivity”. With “QVQHVESGGGLVQAGGSLRLSCAASGLTFSYNAMGWYRQAPAKERELVAAIRSGGSTNYADSVKGRFTISRDNAKNTVYLEMYSLKPVDSAVYFCADKSVTGVFRYYYWGQGSQVTVSS” the “polyreactivity (PSR sort gate)” value was “low polyreactivity”. In the case of “QVQHVESGGGLVQAGGSLRLSCAASGLTFYSYAMGWYRQAPGKERELVATISGGGSTTYADSVKGRFTISRDNAKNTVYLQMNSLKPEDTAVYYCAARSNHYRGWPVPLGYWGQGTQVTVSS”, the “polyreactivity (PSR sort gate)” value is reported as “high polyreactivity”. In the case of “QVQHVESGGGLVQAGGSLRLSCAASGRIFDTYTMGWYRAAPGKVRELVAAITSGGSTYYADSVKGRFTISRDNATNTVYLQMNSLKPEDTAVYYCAARYRSIIRYYYWGQGTQVTVSS”, the “polyreactivity (PSR sort gate)” value is reported as “high polyreactivity”. For “QVQHVESGGGLVQAGGSLRLSCAASGRIFHFNAMGWYRQAPGKERELVAAISYRGGSTYYADSVKGRFTISRDNAKNTVYLQMNSLKPEDTAVYYCAAYTRHSARTYYYSYDYWGQGTQVTVSS”, the “polyreactivity (PSR sort gate)” value was “high polyreactivity”. In the case of “QVQHVESGGGLVQAGGSLRLSCAASGRIFNRYAMVWYRQAPGKERELVAAISASGDNTYYADSVKGRFTISRDNAKNTVYLQMISLKPEDTAVFYCAARYYTYLHFSMYYWGQGTQVTVSS”, the “polyreactivity (PSR sort gate)” value is reported as “high polyreactivity”. In the case of “QVQHVESGGGLVQAGGSLRLSCAASGRIFRDNAMGRNRQAPGKEREVVAAISRRGGSTYYADSVKGRFTISRDNAKNTVYLQLNSLKPEDTAVYYCNKTTHSRTFRYDYWGQGTQVTVSS”, the “polyreactivity (PSR sort gate)” value is reported as “low polyreactivity”. With “QVQHVESGGGLVQAGGSLRLSCAASGRIFWDNASGWYRQAPGKVSELHAAISDSVVITYFADSVKGRFTISRDTAKYTVYLQMNSLKPEDTAFYYCAAHKRCTVYLSSFWMDYWGQGNQVTVSS” the “polyreactivity (PSR sort gate)” value was “low polyreactivity”. For “QVQHVESGGGLVQAGGSLRLSCAASGRIFYAYTMGWYRQAPGKERELGAAISRSGSTYYADSVKGRFTISRDNAKNPVYLQMNSLKPEDTAVYYCAADVTGGRKYDYWGQGTQVTVSS”, the “polyreactivity (PSR sort gate)” value was “low polyreactivity”. With “QVQHVESGGGLVQAGGSLRLSCAASGRIIPGNAMGWYRQAPGKERDLVAAISYGGGSTYYADSVKGRFTISRDNAKNTVYLQMNSLKPEATAVYYCNAGWIRNYGFSIVTYDYWGQGTQVTVSS” the “polyreactivity (PSR sort gate)” value was “low polyreactivity”. With “QVQHVESGGGLVQAGGSLRLSCAASGRTFFENAMGWYRQAPGKEMELVAAISWDGGTTYADSVKGRFSISRDNAKNTVYLQMNSLKPEDTAVYYCNAEVRSNDARGDNDYCGQGTQVTVSS” the “polyreactivity (PSR sort gate)” value was “low polyreactivity”. With “QVQHVESGGGLVQAGGSLRLSCAASGRTFGFNAMGWYRQATGKERELVAAITYSGGRTYYADSVKGRFTISRDNAKNTVYLHMNSLKPEDTAVYFCAALTRRVKKYDYLGQGTQVTVSS” the “polyreactivity (PSR sort gate)” value was “high polyreactivity”. For “QVQHVESGGGLVQAGGSLRLSCAASGRTFGYNDMGWSRQAHGKERELVATISWGGGSTYYADSVKWRFTISRDNAKNTVYLQMNSLKAEDTAVYYCNKVHFGRRHSYSGAIYGEDYWGLGTQVTVSS”, the “polyreactivity (PSR sort gate)” value was “high polyreactivity”. With “QVQHVESGGGLVQAGGSLRLSCAASGRTFHWYAMGWYRQAPGKERELVAAIRYSAGSTYYADSVKGRFTISRDNAKNTVYLQMNSLKPEDTAVYYCAARPPYTDSSPGERTYDYWGQGTQVTVSS” the “polyreactivity (PSR sort gate)” value was “low polyreactivity”. For “QVQHVESGGGLVQAGGSLRLSCAASGRTFITYAMGWYRQGPGKERELVATISGGGGTNYADSVKGRFTISRDNAKNTVYLQMNSLKPEDTAVYYCNKRAWYVYTHFDYWGLGTQVTVSS”, the “polyreactivity (PSR sort gate)” value was “low polyreactivity”. For “QVQHVESGGGLVQAGGSLRLSCAASGRTFKYNAMGWYRQAPGKEWELVAVIRYSGGTTYYADSVKGRFTISRDNAKNTVYLQMNSLKPEDTAVYYCAADSWSRSVNYYYWVQGTQVTVSS”, the “polyreactivity (PSR sort gate)” value was “low polyreactivity”. For “QVQHVESGGGLVQAGGSLRLSCAASGRTFPAYAMGWYRQAPGKERELVAAITYDGGTTYYADSVKGRFTISRYNAKNTVYLQMNSLKPEDTAVYYCADVYDEDQYDYWGQGTQVTVSS”, the “polyreactivity (PSR sort gate)” value was “low polyreactivity”. For “QVQHVESGGGLVQAGGSLRLSCAASGRTFRRNAVGWYRQAPGNERELVATISRGGSTTYADSVKGRFTISRDKAKNTVYLQMNSLKPEDTAVYYCAARTSKRYSYADHDYWGQGTQVTVSS”, the “polyreactivity (PSR sort gate)” value was “low polyreactivity”. In the case of “QVQHVESGGGLVQAGGSLRLSCAASGRTFTPYAMGWYRQAPGKEREFVAAISIVGRTKYADSVKGRFTISRDNAKNTVYLQMNSLKPEDTAVYYCNAQDSRDRKFYWGYTRGHWGQGTQVTVSS”, the “polyreactivity (PSR sort gate)” value is reported as “low polyreactivity”. In the case of “QVQHVESGGGLVQAGGSLRLSCAASGSIFGQYAMGWDRQSPGKERELVAAISTSGGSTYYADSVKGRFTISRDNAKYSVYLQMYSLKPEDTAVYYCNAFNYGTQTYGYWGQGTQVTVSS”, the “polyreactivity (PSR sort gate)” value is reported as “high polyreactivity”. With “QVQHVESGGGLVQAGGSLRLSCAASGSIFTDYAMGWYRQAPGHDRELVAAITLGGNTNYADSVKGRFTISRDNAKHSVYLEMISLLREDTAVYDCATGGYYSAIVYGGYDVWGQGTQVTVSS” the “polyreactivity (PSR sort gate)” value was “low polyreactivity”. With “QVQHVESGGGLVQAGGSLRLSCAASGSIFTGNAMGWYRQAPGKERELVAAISSSGGSTYYADSVKGRFTISRDNAKNTVYLQMNSLKPEDTAVYYCAAYNYFLQYDYWGQGTQVTVSS” the “polyreactivity (PSR sort gate)” value was “low polyreactivity”. With “QVQHVESGGGLVQAGGSLRLSCAASGSIFVYYAMGGYRQAPGKERELVAAISRSGGNTYYADSVKGRFTISRDNAKNTVYLQMNSLKPEDTAVYYCAAQPYVEGTKRYYWGQGTQVTVSS” the “polyreactivity (PSR sort gate)” value was “high polyreactivity”. With “QVQHVESGGGLVQAGGSLRLSCAASGSIFYIYAMGWYRQAPGKERELVASISRSGGSTYYADSVKGRFTISRDNAKNTVYLQMNSLKPEDTAVYYCAAVITFYRYPPGETYYYWGQGTQVTVSS” the “polyreactivity (PSR sort gate)” value was “high polyreactivity”. In the case of “QVQHVESGGGLVQAGGSLRLSCAASGSILDIYAMGWYRQATGKERELVAAITGGGSTNYADSVNGRFTISRDNAKNTVYLLMNSLKPEDTAVYYCAAGTYLNGGGEYWGQGTQVTVSS”, the “polyreactivity (PSR sort gate)” value is reported as “low polyreactivity”. With “QVQHVESGGGLVQAGGSLRLSCAASGSILPFNAMGWYRQAPGKVRELVAAIDGSGGDTYYADSVKGRFTISRDNAKNTVYLQMNSLKAEDTAVYYCAAEYYYTSQLAKYHYGYEYWGQGTQETVSS” the “polyreactivity (PSR sort gate)” value was “high polyreactivity”. In the case of “QVQHVESGGGLVQAGGSLRLSCAASGSTFGRYAMGWYRQAPGKERELVARISWGGGSTYYADSVKGRFTISRDNAKNTVYLQMNSLKPEDSAVYYCATRVYRSAVSYDYWGQGTQVTVSS”, the “polyreactivity (PSR sort gate)” value is reported as “high polyreactivity”.
